Measured values published in doi:10.1101/2023.05.30.542953.

Molecular target: Lactobacillus helveticus chlorogenic acid esterase (LhCE), wild type (Lactobacillus helveticus)
Assay: crystal structure

Work on “Lactobacillus helveticus chlorogenic acid esterase (LhCE), wild type (enzyme)” yielded a stoichiometry N of 2.
